Publication PMC4509486

How the values were obtained:
Experiment in all cases: cross-linking; copper-phenanthroline (1 mM CuSO4/3 mM 1,10-phenanthroline) disulfide cross-linking of purified protein (1 mg/ml) in 20 mM HEPES pH 7.4, 150 mM NaCl, 1 mM TCEP, on ice 15 min; non-reducing SDS-PAGE; efficiency = dimer/(monomer + dimer)
[1] = target: GB1-TM-CC1 monocysteine variant I222C (not stated (human or mouse cDNA cloned)) (UniProt Q13586)
[2] = target: GB1-TM-CC1 monocysteine variant G226C (not stated (human or mouse cDNA cloned)) (UniProt Q13586)
[3] = target: GB1-TM-CC1 monocysteine variant A230C (not stated (human or mouse cDNA cloned)) (UniProt Q13586)

GB1-TM-CC1 monocysteine variant I222C (from UniProt Q13586 209-310) (domain or fragment)
disulfide cross-linking efficiency [1]: > 70%

GB1-TM-CC1 monocysteine variant G226C (from UniProt Q13586 209-310) (domain or fragment)
disulfide cross-linking efficiency [2]: > 70%

GB1-TM-CC1 monocysteine variant A230C (from UniProt Q13586 209-310) (domain or fragment)
disulfide cross-linking efficiency [3]: > 70%
